The record followed here is patent US11547674B2, “Protein-polymer hybrid biomaterials” (The Regents of the University of California, priority 2018, dated 2023).

A short description of series [1]: LDH enzyme kinetics (NADH generation, absorbance at 340 nm). It counts as biochemical, Bacillus stearothermophilus. As to the method:
Enzyme kinetics was measured by absorbance increase at 340 nm in the generation of NADH. All assays were done at 25° C. and in 100 mM triethanolamine hydrochloride buffer following the protocols of Clarke et al. (Clarke, A. R., Wilks, H. M., Barstow, D. A., Atkinson, T., Chia, W. N. & Holbrook, J. J. An Investigation of the Contribution Made by the Carboxylate Group of an Active Site Histidine-Aspartate Couple to Binding and Catalysis in Lactate Dehydrogenase. Biochemistry 27, 1617-1622 (1988)]. Enzyme concentration of 100 nM were mixed with 10 mM NAD+ and 20 mM FBP with varying lactate concentrations for the assay. Km and Kcat were determined using GraphPad Michaelis-Menten curve fit.
Protocols for determining Kcat and Km of LDH were based on previous studies by Clarke et al.^48 Enzyme kinetics were measured by absorbance increases at 340 nm in the generation of NADH. All assays were done at 25° C. and in 100 mM triethanolamine hydrochloride buffer. Enzyme at 100 nM was mixed with 10 mM NAD^+ and 20 mM FBP with varying lactate concentrations. The initial slope of the absorbance vs. time was obtained for a range of lactate concentrations. This initial slope vs. concentration of lactate was plotted in GraphPad Prism and kinetic parameters (Km and kcat) were determined using a non-linear curve fit to the Michaelis-Menten equation.

Series [2] is described as follows: Circular dichroism thermostability scan of LDH. It counts as physicochemical. Particulars: ˜60° C. The protocol:
The tertiary structure and thermostability of WT and mutant LDH were obtained following the protocol of Molino et al. Jasco 810 spectropolarimeter equipped with Jasco Peltier temperature controller (Jasco, Easton, Md.) were used to measure the far-UV circular dichroism (CD). LDH samples were prepared at a concentration of 0.06 mg/ml in 50 mM potassium phosphate and 100 mM NaCl. Samples were scanned between 200-260 nm at 25 C at scanning speed of 10 nm/min in 0.1 pathlength quartz cells. Thermal unfolding was monitored at ellipticity at 217 nm from 60° C. to 90° C. at a heating rate of 1° C./min.
(Circular dichroism is the unequal absorption of left and right circularly polarised light.)

Setting [3] is: 25° C., 100 nM enzyme, 10 mM NAD+, 20 mM FBP, varying lactate.

B1: Wt-LDH: thermostable recombinant wild-type lactate dehydrogenase, amino acid sequence from Bacillus stearothermophilus (protein, UniProt P00344 1-317, looked up)
L-lactate dehydrogenase: MKNNGGARVVVIGAGFVGASYVFALMNQGIADEIVLIDANESKAIGDAMDFNHGKVFAPKPVDIWHGDYDDCRDADLVVICAGANQKPGETRLDLVDKNIAIFRSIVESVMASGFQGLFLVATNPVDILTYATWKFSGLPHERVIGSGTILDTARFRFLLGEYFSVAPQNVHAYIIGEHGDTELPVWSQAYIGVMPIRKLVESKGEEAQKDLERIFVNVRDAAYQIIEKKGATYYGIAMGLARVTRAILHNENAILTVSAYLDGLYGERDVYIGVPAVINRNGIREVIEIELNDDEKNRFHHSAATLKSVLARAFTR
In the case of B1, the “catalytic activity of LDH” value in series [1] is listed as “catalytic”. Also, in series [1] (setting [3]), the Kcat is 8.8 s⁻¹ and the Km – broadly, the substrate concentration at which the rate is half of its maximum – is 38.5 mM. In addition, the “denaturation at the NP reaction temperature” value in series [2] was “does not denature”.
